Source: patent publication US20100247590A1, “Peptide-Based Systems For Delivery Of Cosmetic Agents” (JOHNSON & JOHNSON, priority 2009, published 2010)

Target: streptavidin (coated on iron oxide particles or on fluorescently-labeled polystyrene particles), P22629
Assay: cell-based or functional assay

Chain of streptavidin (coated on iron oxide particles or on fluorescently-labeled polystyrene particles), P22629 (P22629 37-163 limits assumed): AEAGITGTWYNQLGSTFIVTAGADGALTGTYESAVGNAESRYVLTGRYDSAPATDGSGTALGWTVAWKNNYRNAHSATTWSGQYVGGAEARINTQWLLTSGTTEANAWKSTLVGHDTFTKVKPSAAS

Color scale (0-5); sequential coloring of hair with streptavidin-coated iron oxide beads (color scale 0-5): 2
B1: peptide HC260 (peptide)
peptide: MASGSDPSAQSQLPDKHSGLHERAPQRYGPEPEPEPEPIPEPPKEAPVVIEKPKPKPKPKPKPPAHDHKNQKETHQRHAAGSGGGGSPMLSENWLTNHPQNGGAGGAGMLSENWLTNHPQNGK
modifications: not checked
